This is an account of results in the supplement of paper PMC7125110.

± gives the standard error. For part of these data: Fewer inactive variants are shown than the library holds.

First the molecules themselves.
B1: glmS ribozyme (parent)
chain: AUAAAAGCGCCAGAACUACAGAAAUGUAGUUGACGAGGAGGAGGUUUAUCGAAUUUUCGGCGGAUGCCUCCAAA

Settings in all cases: with glucosamine-6-phosphate
Series [1] covers variants of B1. The series is described as follows: self-cleavage kobs at 40 uM GlcN6P; higher = faster cleavage; RNA array. In short, it runs like this:
(§1)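 Barcoded ribozyme variants, transcribed in situ by E. coli RNA polymerase on sequenced MiSeq chips, were followed via a hybridised Cy3 probe at 37 °C. Glucosamine-6-phosphate ranged from 40 μM to 10 mM in HEPES/KCl/Mg(OAc)2 buffer. kobs came from decay fits to per-tile medians, and kcat and KM from weighted Michaelis–Menten fits.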

Variants of B1 are the subject of series [2]. The series is described as follows: self-cleavage kobs at 10000 uM GlcN6P; higher = faster cleavage; RNA array. Put shortly:
as §1

In series [3] the parent is B1. The series is described as follows: self-cleavage kobs at 160 uM GlcN6P; higher = faster cleavage; RNA array. Put shortly:
as §1

In series [4] the parent is B1. The series is described as follows: self-cleavage kobs at 640 uM GlcN6P; higher = faster cleavage; RNA array. Put shortly: as §1
In series [5] the parent is B1. The series is described as follows: self-cleavage kobs at 2500 uM GlcN6P; higher = faster cleavage; RNA array. In short, it runs like this:
as §1

The variants in series [6] derive from B1. The series is described as follows: kcat; higher = faster cleavage; RNA array. In short, it runs like this: as §1
The variants in series [7] derive from B1. In words: KM; higher = weaker cofactor use; RNA array. Put shortly:
as §1

Take A39G A48U C58G: the “self-cleavage kobs at 40 uM GlcN6P” value in series [1] is less than 1e-05 s⁻¹. The “self-cleavage kobs at 10000 uM GlcN6P” value in series [2] is less than 1e-05 s⁻¹.

In the case of A15G C71G, the “self-cleavage kobs at 40 uM GlcN6P” value in series [1] came out at 0.000107 ± 1.2e-05 s⁻¹. The “self-cleavage kobs at 160 uM GlcN6P” value in series [3] is 0.000256 ± 4.1e-05 s⁻¹. Besides, the “self-cleavage kobs at 640 uM GlcN6P” value in series [4] was determined as 0.00066 ± 8.8e-05 s⁻¹. The “self-cleavage kobs at 2500 uM GlcN6P” value in series [5] stood at 0.00214 ± 0.00045 s⁻¹.

In the case of C8G G29U A33C C68A, the “self-cleavage kobs at 40 uM GlcN6P” value in series [1] was less than 1e-05 s⁻¹. Also, the “self-cleavage kobs at 640 uM GlcN6P” value in series [4] was less than 1e-05 s⁻¹. Moreover, the “self-cleavage kobs at 10000 uM GlcN6P” value in series [2] is less than 1e-05 s⁻¹.

Regarding G9A A14C G44U U47C, the “self-cleavage kobs at 40 uM GlcN6P” value in series [1] was less than 1e-05 s⁻¹.

Consider A42G U46C A48U, for which the “self-cleavage kobs at 40 uM GlcN6P” value in series [1] was less than 1e-05 s⁻¹.

Regarding C11U U45G, the kcat in series [6] came to 0.000317 ± 6.8e-05 s⁻¹. For the same variant, the “self-cleavage kobs at 2500 uM GlcN6P” value in series [5] came to 0.000172 ± 6.6e-05 s⁻¹. Besides, the “self-cleavage kobs at 10000 uM GlcN6P” value in series [2] amounted to 0.000222 ± 4.3e-05 s⁻¹.

Take G9U A33C A36C U46C C68G: the “self-cleavage kobs at 40 uM GlcN6P” value in series [1] was less than 1e-05 s⁻¹. In series [2], the “self-cleavage kobs at 10000 uM GlcN6P” value was less than 1e-05 s⁻¹.

As to G13C A48U C70G, in series [1], the “self-cleavage kobs at 40 uM GlcN6P” value is less than 1e-05 s⁻¹. Besides, the “self-cleavage kobs at 10000 uM GlcN6P” value in series [2] was less than 1e-05 s⁻¹.

Regarding A39G U55G, the KM in series [7] was 212 ± 100 µM. Besides, the “self-cleavage kobs at 40 uM GlcN6P” value in series [1] is 0.0012 ± 0.00016 s⁻¹. Also, the “self-cleavage kobs at 160 uM GlcN6P” value in series [3] was found to be 0.00211 ± 0.0006 s⁻¹. The “self-cleavage kobs at 640 uM GlcN6P” value in series [4] stood at 0.00499 ± 0.00097 s⁻¹. In addition, in series [5], the “self-cleavage kobs at 2500 uM GlcN6P” value was 0.00613 ± 0.0016 s⁻¹. The “self-cleavage kobs at 10000 uM GlcN6P” value in series [2] was 0.0177 ± 0.0048 s⁻¹.

Turning to U31G G51C, in series [7], the Michaelis constant (KM) stood at 210 ± 61 µM.

Take C10A C70U: the kcat in series [6] was 2.11e-05 ± 9.5e-06 s⁻¹. Also, the “self-cleavage kobs at 2500 uM GlcN6P” value in series [5] was 2.56e-05 ± 1.3e-05 s⁻¹.

As for G38A U47C, in series [1], the “self-cleavage kobs at 40 uM GlcN6P” value was less than 1e-05 s⁻¹. For the same variant, in series [3], the “self-cleavage kobs at 160 uM GlcN6P” value is less than 1e-05 s⁻¹. Moreover, the “self-cleavage kobs at 2500 uM GlcN6P” value in series [5] is less than 1e-05 s⁻¹.

With G32C A52C G63A, the “self-cleavage kobs at 40 uM GlcN6P” value in series [1] was less than 1e-05 s⁻¹.

In the case of A36C U54G, the kcat in series [6] was less than 1e-05 s⁻¹. Further, the “self-cleavage kobs at 2500 uM GlcN6P” value in series [5] is less than 1e-05 s⁻¹. Besides, the “self-cleavage kobs at 10000 uM GlcN6P” value in series [2] was less than 1e-05 s⁻¹.

C11A U69C: the kcat in series [6] was found to be 6.61e-05 ± 1e-05 s⁻¹. In series [4], the “self-cleavage kobs at 640 uM GlcN6P” value worked out at 7.71e-05 ± 3.5e-05 s⁻¹. In series [5], the “self-cleavage kobs at 2500 uM GlcN6P” value turned out to be 7.67e-05 ± 1.5e-05 s⁻¹. Further, the “self-cleavage kobs at 10000 uM GlcN6P” value in series [2] was 4.97e-05 ± 1.6e-05 s⁻¹.

As to C10U U56A, the kcat in series [6] came out at 2.68e-05 ± 5.7e-06 s⁻¹. In addition, in series [1], the “self-cleavage kobs at 40 uM GlcN6P” value was less than 1e-05 s⁻¹. Moreover, in series [5], the “self-cleavage kobs at 2500 uM GlcN6P” value amounted to 3.47e-05 ± 1.4e-05 s⁻¹.

In the case of A39C C50U, in series [7], the KM turned out to be 1080 ± 200 µM.

For the variant G40U U46C U47G, the kcat in series [6] worked out at 2.86e-05 ± 4.9e-06 s⁻¹.

Regarding A6U A39U, the kcat in series [6] worked out at 0.000104 ± 2.7e-06 s⁻¹. Further, in series [7], the Michaelis-Menten constant (KM) came to 2160 ± 150 µM. Besides, the “self-cleavage kobs at 640 uM GlcN6P” value in series [4] turned out to be 2.53e-05 ± 8.4e-06 s⁻¹. In addition, the “self-cleavage kobs at 2500 uM GlcN6P” value in series [5] was determined as 5.5e-05 ± 7.8e-06 s⁻¹. Further, the “self-cleavage kobs at 10000 uM GlcN6P” value in series [2] turned out to be 8.67e-05 ± 1.1e-05 s⁻¹.

For the variant C34U C61A C67G, the “self-cleavage kobs at 40 uM GlcN6P” value in series [1] is 0.00044 ± 0.00014 s⁻¹. The “self-cleavage kobs at 640 uM GlcN6P” value in series [4] is 0.000318 ± 0.00013 s⁻¹.

For C50G G59C C67G, the “self-cleavage kobs at 40 uM GlcN6P” value in series [1] was found to be 0.00018 ± 5.4e-05 s⁻¹. Besides, in series [2], the “self-cleavage kobs at 10000 uM GlcN6P” value worked out at 0.000119 ± 2.8e-05 s⁻¹.

On to G32A A48U C70U, for which the “self-cleavage kobs at 40 uM GlcN6P” value in series [1] is less than 1e-05 s⁻¹.

As to A12U U55G, the KM in series [7] amounted to 104 ± 42 µM. The “self-cleavage kobs at 40 uM GlcN6P” value in series [1] was found to be 0.00298 ± 0.00031 s⁻¹. Further, the “self-cleavage kobs at 160 uM GlcN6P” value in series [3] came to 0.00618 ± 0.0009 s⁻¹. The “self-cleavage kobs at 640 uM GlcN6P” value in series [4] stood at 0.0105 ± 0.0021 s⁻¹. Also, the “self-cleavage kobs at 2500 uM GlcN6P” value in series [5] amounted to 0.00928 ± 0.0023 s⁻¹. Besides, the “self-cleavage kobs at 10000 uM GlcN6P” value in series [2] came to 0.119 ± 0.048 s⁻¹.

For C50G G66U, the “self-cleavage kobs at 40 uM GlcN6P” value in series [1] came out at 0.000495 ± 0.00015 s⁻¹. In series [5], the “self-cleavage kobs at 2500 uM GlcN6P” value worked out at 0.000123 ± 5.1e-05 s⁻¹.

As to G62U C68A, the kcat in series [6] came out at 1.34e-05 ± 8.7e-07 s⁻¹. Also, the KM in series [7] is 129 ± 56 µM.

As for C10U C50G, the KM in series [7] turned out to be 51.5 ± 26 µM. The “self-cleavage kobs at 40 uM GlcN6P” value in series [1] turned out to be 6.14e-05 ± 1e-05 s⁻¹. Moreover, in series [3], the “self-cleavage kobs at 160 uM GlcN6P” value was determined as 9.85e-05 ± 1.3e-05 s⁻¹. For the same variant, the “self-cleavage kobs at 640 uM GlcN6P” value in series [4] worked out at 0.000136 ± 1.7e-05 s⁻¹. Moreover, the “self-cleavage kobs at 2500 uM GlcN6P” value in series [5] was 0.00051 ± 0.0002 s⁻¹. Besides, the “self-cleavage kobs at 10000 uM GlcN6P” value in series [2] was determined as 0.000116 ± 3e-05 s⁻¹.

Broadly, the kcat is the number of substrate molecules converted per active site and unit of time at saturation. What is called KM is the substrate concentration at which the rate is half of its maximum.
